In article PMC12108577:
Several values for one entry are separate records, joined by “and”; a condition that tells them apart may be missing. Equal values may be shown once.

What was measured:
CXCR2 on THP-1 cells = CXCR2 on THP-1 cells (UniProt P25025); assay: flow cytometry on cells; conditions: THP-1 cells (CXCR2+), FITC-conjugated anti-6X His antibody
CXCL5-Fc fusion protein = CXCL5-Fc fusion protein (UniProt P42830); assay: SDS-PAGE under reducing and non-reducing conditions; purified proteins separated under reducing and non-reducing conditions, Coomassie Blue staining
[1] = molecular target: CXCR2 on THP-1 cells (human (endogenous in THP-1)) (UniProt P25025)
CXCL1-Fc fusion protein = CXCL1-Fc fusion protein (UniProt P09341); assay: SDS-PAGE under reducing and non-reducing conditions; purified proteins separated under reducing and non-reducing conditions, Coomassie Blue staining
[2] = molecular target: CXCR2 on THP-1 cells (human (endogenous in THP-1)) (UniProt P25025); assay: flow cytometry on cells; THP-1 cells incubated on ice with purified proteins for 30 min; bound protein detected with a fluorophore-conjugated anti-His tag antibody; FACS buffer (PBS, 1% FBS, 150 μM CaCl2); Fc receptors blocked with Human SeroBlock; single dose and a range of concentrations
[3] = n = 3, parent: est. 100000, read off a plot

CXCL1^1-Fc^2, sequence (P09341 whole entry, looked up, tested part not stated): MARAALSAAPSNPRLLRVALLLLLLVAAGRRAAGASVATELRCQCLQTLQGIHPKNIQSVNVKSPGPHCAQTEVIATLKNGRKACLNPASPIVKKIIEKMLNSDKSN
CXCL1^1-Fc^1, sequence (P09341 whole entry): as the sequence (P09341 whole entry, looked up, tested part not stated) above

response (CXCR2 on THP-1 cells; [3]) [MFI]	response (CXCR2 on THP-1 cells; parent: 99.9) [%]	IC50 of inhibition of THP-1 cell migration toward PDAC conditioned medium (Boyden chamber) [1] [nM]	Substance	further results
19000	98.5		CXCL1-Fc fusion protein (from UniProt P09341) CXCL1-Fc chain:T366Y; Fc chain:Y407T	
			CXCL5-Fc fusion protein (from UniProt P42830 37-114)	stoichiometry N (CXCL5-Fc fusion protein): 2
		28	CXCL1^1-Fc^2 (from UniProt P09341 35-107) (Fc fusion)	
			CXCL1-Fc fusion protein (from UniProt P09341 35-107)	stoichiometry N (CXCL1-Fc fusion protein): 2; fold higher mean fluorescence intensity per cell than CXCL1^1-Fc^2 or CXCL1^1-Fc^1 [2]: 3 fold and 4 fold
		211	CXCL1^1-Fc^1 (from UniProt P09341 35-107) (Fc fusion)	
22000	97.9		CXCL1-Fc fusion protein (from UniProt P09341) T366Y	
